We go through 4 molecules from publication PMC8562849 (The Journal of Cell Biology, 2021).

For one assay, the target named is Pin1 (GST-Pin1) (UniProt Q13526). As to the kind of experiment: GST-Pin1 pull-down from U2OS lysate. The following applies: reference: SST-MTAP (wild type); sites S398,S405,T408.
The next assay concerns the target spindly (UniProt Q96EA4). Nature of the assay: SBP affinity purification, immunoblot. The conditions noted are these: reference: SST-MTAP, sites S398,S405,T408.
Assay [1] has as its target GST-tagged Pin1 (prolyl isomerase interacting NIMA 1) (UniProt Q13526 1-163). Nature of the assay: pull-down.

Take “hLIC1 (dynein light intermediate chain 1) (from UniProt Q9Y6G9) AAA-MTAP”: in the assay with Pin1 (GST-Pin1), the “binding against the reference” value is on record as “weaker”.

Regarding “hLIC1 (dynein light intermediate chain 1) (from UniProt Q9Y6G9) AAA-MTAP, metaphase lysate”, the “binding against the reference” value in the assay with spindly (metaphase lysate) was “weaker”.

For the molecule “hLIC1 (dynein light intermediate chain 1) (from UniProt Q9Y6G9) AAA-MTAP, prometaphase lysate”, the “binding against the reference” value in the assay with spindly (prometaphase lysate) was “weaker”.

B1: purified rLIC1-CTD (aa 389-523), phosphorylated in vitro by cdk1-cyclin B (domain or fragment, rat, UniProt Q9QXU8 389-523, looked up)
chain: TAAGRPVDASPRVPGGSPRTPNRSVSSNVASVSPIPAGSKKIDPNMKAGATSEGVLANFFNSLLSKKTGSPGGPGVGGSPGGGAAGASTSLPPSAKKSGQKPVLSDVHAELDRITRKPASVSPTTPPSPTEGEAS
modifications: phosphorylated in vitro by cdk1-cyclin B (three cdk1 sites S398, S405, T408)
As to B1, the binding result in assay [1] is given as “binds”.
